{"source": "paper PMC12412624", "about": "“Engineered Cas12j‐8 is a Versatile Platform for Multiplexed Genome Modulation in Mammalian Cells”", "key": {"[1]": {"system": "T1, dCas12j-8 E258R+D313R+D495R+D527R E258R;D313R;D495R;D527R;D369A;E567A;D658A (bacteriophage (metagenome))", "T1 sequence": "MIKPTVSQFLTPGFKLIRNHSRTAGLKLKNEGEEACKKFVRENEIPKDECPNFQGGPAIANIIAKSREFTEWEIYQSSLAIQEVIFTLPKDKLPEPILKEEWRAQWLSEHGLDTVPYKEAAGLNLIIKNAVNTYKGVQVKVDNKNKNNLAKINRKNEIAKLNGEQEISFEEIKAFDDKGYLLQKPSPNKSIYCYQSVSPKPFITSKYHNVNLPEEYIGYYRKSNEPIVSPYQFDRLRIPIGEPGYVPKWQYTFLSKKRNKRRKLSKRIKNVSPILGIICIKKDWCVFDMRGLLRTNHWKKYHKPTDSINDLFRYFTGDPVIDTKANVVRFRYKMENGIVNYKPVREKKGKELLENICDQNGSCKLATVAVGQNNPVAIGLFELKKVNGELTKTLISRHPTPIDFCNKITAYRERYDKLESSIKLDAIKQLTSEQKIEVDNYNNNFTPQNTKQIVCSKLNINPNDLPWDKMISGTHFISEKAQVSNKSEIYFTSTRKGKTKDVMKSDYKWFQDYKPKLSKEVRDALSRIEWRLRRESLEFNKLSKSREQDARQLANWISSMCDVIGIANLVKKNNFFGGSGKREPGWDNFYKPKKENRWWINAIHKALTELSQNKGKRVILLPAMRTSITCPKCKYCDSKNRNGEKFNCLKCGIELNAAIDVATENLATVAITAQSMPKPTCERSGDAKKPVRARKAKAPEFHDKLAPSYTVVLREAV", "conditions": "HEK293T cells; panel 1e (compare within a panel only); scale: mean GFP / mean GFP of wild type, printed, no background subtraction"}, "[2]": {"system": "T2, dCas12j-8 E258R+D313R+D527R E258R;D313R;D527R;D369A;E567A;D658A (bacteriophage (metagenome))", "T2 sequence": "T1 sequence with R495D", "conditions": "HEK293T cells; panel 1e (compare within a panel only); scale: mean GFP / mean GFP of wild type, printed, no background subtraction"}, "[3]": {"system": "T3, dCas12j-8 E258R+D523R E258R;D523R;D369A;E567A;D658A (bacteriophage (metagenome))", "T3 sequence": "T1 sequence with R313D, R495D, D523R, R527D", "conditions": "HEK293T cells; panel 1d (compare within a panel only); scale: mean GFP / mean GFP of wild type, printed, no background subtraction"}, "[4]": {"system": "T4, dCas12j-8 E258R+D527R E258R;D527R;D369A;E567A;D658A (bacteriophage (metagenome))", "T4 sequence": "T1 sequence with R313D, R495D", "conditions": "HEK293T cells; panel 1d (compare within a panel only); scale: mean GFP / mean GFP of wild type, printed, no background subtraction"}}, "note": "Where a chain is given by its changes, count along the chain named."}
{"sequence": "CUUUCAAGACUAAUAGAUUGCUCCUUACGAGGAGACACUCCCUAUCAGUGAUAGAG / TTNACTCCCTATCAGTGATAGAG / CTCTATCACTGATAGGGAGTNAA [TetO]", "values": [{"measurement": "binding signal", "setting": "[1]", "value": 5.3}, {"measurement": "binding signal", "setting": "[2]", "value": 5.09}, {"measurement": "binding signal", "setting": "[3]", "value": 2.67}, {"measurement": "binding signal", "setting": "[4]", "value": 2.83}]}
